Biological target: phospholamban peptide, first 21 amino acids, wild type (UniProt P26678)
Assay: SPR

UniProt P26678, sequence (P26678 1-21): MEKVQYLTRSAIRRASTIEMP

Kd: 13.3 nM
Substance: purified AKAP7γ (from UniProt Q9P0M2 1-348) (natural protein)

Source: PMC4787601
